Test results from PMC5113206 (RNA, 2016).
Blank lines part the entries; values can stand above or below the binder they belong to.

Columns and labels:
Experiment in all cases: pull-down
GST-eIF3a (783–1382) = GST-eIF3a (783–1382) (human, UniProt Q14152 783-1382)
DHX29 (FL), His-tagged = biological target: T1, DHX29 (FL), His-tagged (UniProt Q7Z478 1-1369)
T1 sequence (looked up): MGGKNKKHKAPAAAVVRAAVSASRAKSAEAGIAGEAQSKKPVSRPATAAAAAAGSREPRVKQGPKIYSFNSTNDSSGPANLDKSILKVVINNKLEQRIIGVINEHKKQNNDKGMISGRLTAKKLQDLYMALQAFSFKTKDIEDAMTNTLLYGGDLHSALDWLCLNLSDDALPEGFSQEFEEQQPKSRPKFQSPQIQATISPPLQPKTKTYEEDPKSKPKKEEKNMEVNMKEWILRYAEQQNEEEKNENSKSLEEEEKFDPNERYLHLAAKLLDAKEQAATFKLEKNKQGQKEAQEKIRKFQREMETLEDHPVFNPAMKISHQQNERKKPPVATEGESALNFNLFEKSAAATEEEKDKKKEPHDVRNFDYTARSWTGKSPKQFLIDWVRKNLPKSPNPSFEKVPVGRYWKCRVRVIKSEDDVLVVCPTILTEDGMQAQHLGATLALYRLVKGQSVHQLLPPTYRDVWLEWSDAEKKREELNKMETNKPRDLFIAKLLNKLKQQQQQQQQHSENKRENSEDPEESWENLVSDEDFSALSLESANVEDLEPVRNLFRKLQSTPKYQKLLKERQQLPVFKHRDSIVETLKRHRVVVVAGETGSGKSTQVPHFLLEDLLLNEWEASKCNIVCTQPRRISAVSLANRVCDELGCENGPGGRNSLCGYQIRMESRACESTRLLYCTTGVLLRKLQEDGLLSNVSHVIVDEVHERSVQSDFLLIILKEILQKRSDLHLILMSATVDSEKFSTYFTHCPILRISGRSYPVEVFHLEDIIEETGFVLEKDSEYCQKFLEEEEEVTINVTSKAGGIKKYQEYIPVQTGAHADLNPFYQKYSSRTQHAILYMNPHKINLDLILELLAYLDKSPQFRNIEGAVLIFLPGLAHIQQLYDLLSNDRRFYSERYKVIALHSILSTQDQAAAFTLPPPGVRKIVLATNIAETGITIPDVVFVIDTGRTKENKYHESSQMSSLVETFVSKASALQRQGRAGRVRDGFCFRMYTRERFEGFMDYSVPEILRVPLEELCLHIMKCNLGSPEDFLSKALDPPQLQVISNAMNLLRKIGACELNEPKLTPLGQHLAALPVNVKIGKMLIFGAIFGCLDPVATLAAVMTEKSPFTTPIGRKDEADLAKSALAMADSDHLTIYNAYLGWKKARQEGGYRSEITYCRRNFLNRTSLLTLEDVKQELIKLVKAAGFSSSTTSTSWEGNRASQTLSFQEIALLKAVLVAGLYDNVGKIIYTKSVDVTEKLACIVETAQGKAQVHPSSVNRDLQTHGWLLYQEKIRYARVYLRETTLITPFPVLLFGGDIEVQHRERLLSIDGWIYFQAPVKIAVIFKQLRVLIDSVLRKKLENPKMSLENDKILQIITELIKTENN

GST-DHX29 (248–594) = biological target: T2, GST-DHX29 (248–594) (UniProt Q7Z478 248-594)
T2 sequence (looked up): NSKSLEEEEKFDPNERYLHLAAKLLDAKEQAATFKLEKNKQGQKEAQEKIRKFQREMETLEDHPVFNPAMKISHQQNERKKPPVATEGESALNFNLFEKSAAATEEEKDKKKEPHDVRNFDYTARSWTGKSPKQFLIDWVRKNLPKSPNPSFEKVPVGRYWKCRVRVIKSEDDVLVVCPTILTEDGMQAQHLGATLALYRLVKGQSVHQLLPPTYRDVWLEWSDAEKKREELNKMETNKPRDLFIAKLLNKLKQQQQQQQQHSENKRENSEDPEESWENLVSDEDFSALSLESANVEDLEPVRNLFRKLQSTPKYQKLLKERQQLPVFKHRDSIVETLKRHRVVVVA

Chain of GST-eIF3a (783–1382) (Q14152 783-1382): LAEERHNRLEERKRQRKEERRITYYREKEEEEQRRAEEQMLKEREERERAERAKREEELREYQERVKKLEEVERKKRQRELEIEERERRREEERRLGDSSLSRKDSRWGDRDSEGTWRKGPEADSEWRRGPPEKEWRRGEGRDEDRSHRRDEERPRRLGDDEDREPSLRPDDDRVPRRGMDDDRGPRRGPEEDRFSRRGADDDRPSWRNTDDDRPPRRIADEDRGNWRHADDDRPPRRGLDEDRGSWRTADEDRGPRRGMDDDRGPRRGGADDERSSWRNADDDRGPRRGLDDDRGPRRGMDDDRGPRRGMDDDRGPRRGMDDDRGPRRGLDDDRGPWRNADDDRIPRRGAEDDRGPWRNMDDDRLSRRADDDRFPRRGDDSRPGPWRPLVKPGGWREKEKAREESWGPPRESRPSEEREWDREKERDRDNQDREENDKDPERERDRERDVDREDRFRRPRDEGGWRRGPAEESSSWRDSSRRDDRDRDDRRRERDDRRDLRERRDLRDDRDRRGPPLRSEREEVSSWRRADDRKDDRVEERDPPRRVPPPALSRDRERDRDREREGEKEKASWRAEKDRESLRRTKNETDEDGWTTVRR

binding result (GST-eIF3a (783–1382)): binds
B1: DHX29 (1–247), His-tagged (domain or fragment, UniProt Q7Z478 1-247, looked up)
chain: MGGKNKKHKAPAAAVVRAAVSASRAKSAEAGIAGEAQSKKPVSRPATAAAAAAGSREPRVKQGPKIYSFNSTNDSSGPANLDKSILKVVINNKLEQRIIGVINEHKKQNNDKGMISGRLTAKKLQDLYMALQAFSFKTKDIEDAMTNTLLYGGDLHSALDWLCLNLSDDALPEGFSQEFEEQQPKSRPKFQSPQIQATISPPLQPKTKTYEEDPKSKPKKEEKNMEVNMKEWILRYAEQQNEEEKNE

binding result (DHX29 (FL), His-tagged): binds
B2: GST-eIF3b (161–264) (domain or fragment, murine, UniProt Q8JZQ9 161-264, looked up)
chain: VLKDRPQEADGIDSVIVVDNVPQVGPDRLEKLKNVIHKIFSKFGKIINDYYPEEDGKTKGYIFLEYASPAHAVDAVKNADGYKLDKQHTFRVNLFTDFDKYMTI

binding result (GST-DHX29 (248–594)): binds
B3: eIF3b (1–300), His-tagged (domain or fragment, murine, UniProt Q8JZQ9 1-300, looked up)
chain: MQDAENVAVPEAAEERAEPARQQPASESPPTDEAAGSGGSEVGQTEDAEEDAEAGPEPEVRAKPAAQSEEETATSPAASPTPQSAERSPSQEPSAPGKAEAVGEQARGHPSAGAEEEGGSDGSAAEAEPRALENGEADEPSFSDPEDFVDDVSEEELLGDVLKDRPQEADGIDSVIVVDNVPQVGPDRLEKLKNVIHKIFSKFGKIINDYYPEEDGKTKGYIFLEYASPAHAVDAVKNADGYKLDKQHTFRVNLFTDFDKYMTISDEWDIPEKQPFKDLGNLRYWLEEAECRDQYSVIFE
